Experimental data reported in PMC7508794, “IRES-targeting small molecule inhibits enterovirus 71 replication via allosteric stabilization of a ternary complex”.

What was measured:
[1] = target: T1, AUF1-RRM1,2 (UniProt Q14103-4 70-239); assay: ITC; DMA-135, RNA:DMA 1:3.3; ITC: 10 mM K2HPO4, 20 mM KCl, 0.5 mM EDTA, 4 mM BME, pH 6.5, 25 C; lysate pull-down: 5 mM HEPES pH 7.1, 40 mM KCl, 0.1 mM EDTA, 2 mM MgCl2, 2 mM DTT, 0.25 mg/ml heparin, 30 C; settings: protein: recombinant; tags: N-terminal His6, cleaved with TEV; hairpin with 5-nt bulge and 7-nt apical loop
T1 sequence (Q14103 other isoform, or with tags, fused parts or gaps): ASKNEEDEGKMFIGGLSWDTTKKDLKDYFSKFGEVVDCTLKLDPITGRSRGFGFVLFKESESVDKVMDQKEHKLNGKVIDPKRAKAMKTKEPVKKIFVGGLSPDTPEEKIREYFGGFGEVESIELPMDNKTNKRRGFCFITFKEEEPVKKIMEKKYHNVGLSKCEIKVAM

[2] = target: T1, AUF1-RRM1,2; assay: ITC; DMA-135, RNA:DMA 1:5; ITC: 10 mM K2HPO4, 20 mM KCl, 0.5 mM EDTA, 4 mM BME, pH 6.5, 25 C; lysate pull-down: 5 mM HEPES pH 7.1, 40 mM KCl, 0.1 mM EDTA, 2 mM MgCl2, 2 mM DTT, 0.25 mg/ml heparin, 30 C; settings: protein: recombinant; tags: N-terminal His6, cleaved with TEV; hairpin with 5-nt bulge and 7-nt apical loop
[3] = target: T1, AUF1-RRM1,2; assay: ITC; DMA-135, RNA:DMA 1:1.6; ITC: 10 mM K2HPO4, 20 mM KCl, 0.5 mM EDTA, 4 mM BME, pH 6.5, 25 C; lysate pull-down: 5 mM HEPES pH 7.1, 40 mM KCl, 0.1 mM EDTA, 2 mM MgCl2, 2 mM DTT, 0.25 mg/ml heparin, 30 C; settings: protein: recombinant; tags: N-terminal His6, cleaved with TEV; hairpin with 5-nt bulge and 7-nt apical loop
[4] = target: T1, AUF1-RRM1,2; assay: ITC; DMA-001, RNA:DMA 1:5; ITC: 10 mM K2HPO4, 20 mM KCl, 0.5 mM EDTA, 4 mM BME, pH 6.5, 25 C; lysate pull-down: 5 mM HEPES pH 7.1, 40 mM KCl, 0.1 mM EDTA, 2 mM MgCl2, 2 mM DTT, 0.25 mg/ml heparin, 30 C; settings: protein: recombinant; tags: N-terminal His6, cleaved with TEV; hairpin with 5-nt bulge and 7-nt apical loop
[5] = target: T1, AUF1-RRM1,2; assay: ITC; DMA-155, RNA:DMA 1:5; ITC: 10 mM K2HPO4, 20 mM KCl, 0.5 mM EDTA, 4 mM BME, pH 6.5, 25 C; lysate pull-down: 5 mM HEPES pH 7.1, 40 mM KCl, 0.1 mM EDTA, 2 mM MgCl2, 2 mM DTT, 0.25 mg/ml heparin, 30 C; settings: protein: recombinant; tags: N-terminal His6, cleaved with TEV; hairpin with 5-nt bulge and 7-nt apical loop
[6] = target: T1, AUF1-RRM1,2; assay: ITC; no small molecule; ITC: 10 mM K2HPO4, 20 mM KCl, 0.5 mM EDTA, 4 mM BME, pH 6.5, 25 C; lysate pull-down: 5 mM HEPES pH 7.1, 40 mM KCl, 0.1 mM EDTA, 2 mM MgCl2, 2 mM DTT, 0.25 mg/ml heparin, 30 C; settings: protein: recombinant; tags: N-terminal His6, cleaved with TEV; hairpin with 5-nt bulge and 7-nt apical loop
[7] = target: A1-RRM1,2 (UP1) (UniProt P09651 1-196); assay: as above; settings: protein: recombinant; tags: C-terminal His6; hairpin with 5-nt bulge and 7-nt apical loop
Chain of A1-RRM1,2 (UP1) (P09651 1-196): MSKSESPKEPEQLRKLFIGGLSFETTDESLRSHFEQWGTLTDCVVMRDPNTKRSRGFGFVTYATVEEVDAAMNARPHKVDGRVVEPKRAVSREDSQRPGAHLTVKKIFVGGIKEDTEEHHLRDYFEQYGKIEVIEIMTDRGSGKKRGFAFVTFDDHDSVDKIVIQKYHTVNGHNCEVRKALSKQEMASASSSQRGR

GGAUCAAUAGCAGGUGUGGCACACCAGUCAUACCUUGAUCC (structured_RNA) [EV71 SLII (SLII2231)]
Kd [1]: 140 ± 2 nM
Kd [2]: 134 ± 7 nM
Kd [3]: 240 ± 72 nM
Kd [4]: 306 ± 4 nM
Kd [5]: 390 ± 7 nM
Kd [6]: 336 ± 44 nM
binding result [7]: binds
